Experimental data reported in the Immune Epitope Database (IEDB).

How the values were obtained:
Experiment in all cases: IEDB peptide-MHC binding, purified MHC/competitive/fluorescence; filed as Kd, often an IC50 or EC50 that approximates it; ≥ and ≤ were set here for values at or beyond the usual limits of such assays
Conditions in all cases: source organism: Rickettsia bellii OSU 85-389
HLA-A*11:01 = molecular target: HLA-A*11:01
HLA-A*23:01 = molecular target: HLA-A*23:01
HLA-A*66:01 = molecular target: HLA-A*66:01
HLA-B*07:02 = molecular target: HLA-B*07:02
HLA-B*40:01 = molecular target: HLA-B*40:01
HLA-B*44:02 = molecular target: HLA-B*44:02
HLA-B*53:01 = molecular target: HLA-B*53:01
HLA-B*58:01 = molecular target: HLA-B*58:01

Measured: Kd

EDFEIFYNL
≥ 5 µM: all assays above
